In paper PMC13184981 (ACS Chemical Biology, 2026):

Molecular target: the molecule itself
Assay: mass photometry

B1: Purified recombinant full-length LIMK1 (natural protein)
chain: MRLTLLCCTWREERMGEEGSELPVCASCGQRIYDGQYLQALNADWHADCFRCCDCSASLSHQYYEKDGQLFCKKDYWARYGESCHGCSEQITKGLVMVAGELKYHPECFICLTCGTFIGDGDTYTLVEHSKLYCGHCYYQTVVTPVIEQILPDSPGSHLPHTVTLVSIPASSHGKRGLSVSIDPPHGPPGCGTEHSHTVRVQGVDPGCMSPDVKNSIHVGDRILEINGTPIRNVPLDEIDLLIQETSRLLQLTLEHDPHDTLGHGLGPETSPLSSPAYTPSGEAGSSARQKPVLRSCSIDRSPGAGSLGSPASQRKDLGRSESLRVVCRPHRIFRPSDLIHGEVLGKGCFGQAIKVTHRETGEVMVMKELIRFDEETQRTFLKEVKVMRCLEHPNVLKFIGVLYKDKRLNFITEYIKGGTLRGIIKSMDSQYPWSQRVSFAKDIASGMAYLHSMNIIHRDLNSHNCLVRENKNVVVADFGLARLMVDEKTQPEGLRSLKKPDRKKRYTVVGNPYWMAPEMINGRSYDEKVDVFSFGIVLCEIIGRVNADPDYLPRTMDFGLNVRGFLDRYCPPNCPPSFFPITVRCCDLDPEKRPSFVKLEHWLETLRMHLAGHLPLGPQLEQLDRGFWETYRRGESGLPAHPEVPD
notes: source: insect cells, baculovirus, purified (Ni-NTA, SP Sepharose, TEV cleavage, SEC)
stoichiometry N: 2
